# Biological target: HeV G envelope glycoprotein (on effector cells expressing HeV F and G, or on infectious HeV) (Hendra virus) (UniProt O89343)
# Assay: cell-based or functional assay
# Sequence of HeV G envelope glycoprotein (on effector cells expressing HeV F and G, or on infectious HeV) (Hendra virus) (O89343 whole entry): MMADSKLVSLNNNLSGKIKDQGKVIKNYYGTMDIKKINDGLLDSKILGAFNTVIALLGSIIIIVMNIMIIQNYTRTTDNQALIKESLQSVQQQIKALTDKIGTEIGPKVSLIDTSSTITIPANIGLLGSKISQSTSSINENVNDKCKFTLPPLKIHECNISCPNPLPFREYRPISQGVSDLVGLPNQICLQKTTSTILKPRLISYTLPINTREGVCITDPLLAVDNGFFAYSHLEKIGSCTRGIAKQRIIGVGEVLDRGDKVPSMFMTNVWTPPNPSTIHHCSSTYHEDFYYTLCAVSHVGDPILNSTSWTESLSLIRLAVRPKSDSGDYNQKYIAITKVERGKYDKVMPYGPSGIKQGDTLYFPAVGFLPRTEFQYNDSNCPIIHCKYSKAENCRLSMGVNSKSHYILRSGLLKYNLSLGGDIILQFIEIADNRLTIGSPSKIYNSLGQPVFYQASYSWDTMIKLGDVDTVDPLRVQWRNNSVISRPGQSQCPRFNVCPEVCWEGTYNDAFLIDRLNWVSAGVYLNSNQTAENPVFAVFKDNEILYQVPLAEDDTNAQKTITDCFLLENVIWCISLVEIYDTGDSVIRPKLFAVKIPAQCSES
substance,measurement,value
Fab X5,"syncytia per complete photograph view, control antibody (17 without antibody) (syncytia per view)",20

# From patent publication US20090214428A1
